Measurements reported in US20130281360A1.
Read-outs that look alike come from different tables or passages of the source.

Key:
[1] = target: E. coli MG1655 SPase (LepB) with His at residue 84, in the strain (Escherichia coli K-12 MG1655) (UniProt P00803); test: cell-based or functional assay
[2] = target: E. coli MG1655 SPase (LepB) with Phe at residue 84, in the strain (Escherichia coli K-12 MG1655) (UniProt P00803); test: cell-based or functional assay
[3] = target: full-length His-tagged S. aureus SPase (SpsB), P29S mutant (Staphylococcus aureus NCTC 8325); test: equilibrium binding by the increase of arylomycin fluorescence (ex 320 nm, em 410 nm) with full-length His-tagged S. aureus SPase
[4] = target: full-length His-tagged S. aureus SPase (SpsB), wild type (Staphylococcus aureus NCTC 8325); test: as above
[5] = target: full-length His-tagged S. aureus SPase (SpsB), P29S mutant (Staphylococcus aureus NCTC 8325); test: steady-state binding by increase of arylomycin fluorescence, full-length SPase, buffer with 10% glycerol
[6] = target: full-length His-tagged S. aureus SPase (SpsB), wild type (Staphylococcus aureus NCTC 8325); test: as above
[7] = target: P84S variant of the truncated E. coli SPase (Δ2-75) (Escherichia coli K-12 MG1655) (UniProt P00803); test: steady-state binding by increase of arylomycin fluorescence (ex 320 nm, em 410 nm), SPase in n-octyl-β-glucopyranoside micelles
[8] = target: truncated wild type E. coli SPase that lacks the N-terminal membrane helices (Δ2-75) (Escherichia coli K-12 MG1655) (UniProt P00803); test: as above
[9] = target: detergent-solubilized full-length His-tagged E. coli SPase, P84S variant (Escherichia coli) (UniProt P00803); test: equilibrium binding by the increase of arylomycin fluorescence (ex 320 nm, em 410 nm) with detergent-solubilized full-length E. coli SPase
[10] = target: detergent-solubilized full-length His-tagged E. coli SPase, wild type (Escherichia coli) (UniProt P00803); test: as above
[11] = target: detergent-solubilized full-length His-tagged E. coli SPase, P84S variant (Escherichia coli) (UniProt P00803); test: steady-state binding by increase of arylomycin fluorescence, detergent-solubilized full-length SPase
[12] = target: detergent-solubilized full-length His-tagged E. coli SPase, wild type (Escherichia coli) (UniProt P00803); test: as above
[13] = target: P84S variant of the truncated E. coli SPase (Δ2-75) (Escherichia coli K-12 MG1655) (UniProt P00803); test: steady state binding by the increase of arylomycin fluorescence (ex 320 nm, em 410 nm) with soluble N-terminally truncated E. coli SPase
[14] = target: truncated wild type E. coli SPase that lacks the N-terminal membrane helices (Δ2-75) (Escherichia coli K-12 MG1655) (UniProt P00803); test: as above
[15] = target: E. coli MG1655 SPase (LepB) with Gly at residue 84, in the strain (Escherichia coli K-12 MG1655) (UniProt P00803); test: cell-based or functional assay
[16] = target: S. epidermidis RP62A signal peptidase IB (SpsIB), wild type, in the strain (Staphylococcus epidermidis RP62A); test: cell-based or functional assay
[17] = target: E. coli MG1655 SPase (LepB) with Met at residue 84, in the strain (Escherichia coli K-12 MG1655) (UniProt P00803); test: cell-based or functional assay
[18] = target: E. coli MG1655 SPase (LepB) with Tyr at residue 84, in the strain (Escherichia coli K-12 MG1655) (UniProt P00803); test: cell-based or functional assay
[19] = target: S. aureus NCTC 8325 SPase (SpsB), wild type, in the strain (Staphylococcus aureus NCTC 8325); test: cell-based or functional assay
[20] = target: E. coli MG1655 SPase (LepB) with Ala at residue 84, in the strain (Escherichia coli K-12 MG1655) (UniProt P00803); test: cell-based or functional assay
[21] = target: E. coli MG1655 SPase (LepB) with Glu at residue 84, in the strain (Escherichia coli K-12 MG1655) (UniProt P00803); test: cell-based or functional assay
[22] = target: E. coli MG1655 SPase (LepB) with His at residue 84, in the strain (Escherichia coli K-12 MG1655) (UniProt P00803); test: cell-based or functional assay; remark: listed apart in the source
[23] = target: E. coli MG1655 SPase (LepB) with Cys at residue 84, in the strain (Escherichia coli K-12 MG1655) (UniProt P00803); test: cell-based or functional assay
[24] = target: E. coli SPase (LepB) P84S, in strain PAS0232 (Escherichia coli K-12 MG1655) (UniProt P00803); test: cell-based or functional assay
[25] = target: E. coli MG1655 SPase (LepB) with Val at residue 84, in the strain (Escherichia coli K-12 MG1655) (UniProt P00803); test: cell-based or functional assay
[26] = target: P. aeruginosa PAO1 SPase (LepB), wild type, in the strain (Pseudomonas aeruginosa PAO1) (UniProt Q9I5G7); test: cell-based or functional assay
[27] = target: E. coli MG1655 SPase (LepB) with Lys at residue 84, in the strain (Escherichia coli K-12 MG1655) (UniProt P00803); test: cell-based or functional assay
[28] = target: P. aeruginosa PAO1 SPase (LepB) P84L, in the strain lepB(P84L) P. aeruginosa PAO1 (Pseudomonas aeruginosa PAO1) (UniProt Q9I5G7); test: cell-based or functional assay
[29] = target: S. epidermidis SpsIB S29P, in strain PAS9001 (Staphylococcus epidermidis RP62A); test: cell-based or functional assay
[30] = target: E. coli MG1655 SPase (LepB), wild type, in the strain (Escherichia coli K-12 MG1655) (UniProt P00803); test: cell-based or functional assay
[31] = target: E. coli MG1655 SPase (LepB) with Arg at residue 84, in the strain (Escherichia coli K-12 MG1655) (UniProt P00803); test: cell-based or functional assay
[32] = target: E. coli MG1655 SPase (LepB) with Thr at residue 84, in the strain (Escherichia coli K-12 MG1655) (UniProt P00803); test: cell-based or functional assay
[33] = target: S. epidermidis SpsIB S31P, in strain PAS9002 (Staphylococcus epidermidis RP62A); test: cell-based or functional assay
[34] = target: E. coli MG1655 SPase (LepB) with Phe at residue 84, in the strain (Escherichia coli K-12 MG1655) (UniProt P00803); test: cell-based or functional assay; remark: listed apart in the source
[35] = target: E. coli MG1655 SPase (LepB) with Asp at residue 84, in the strain (Escherichia coli K-12 MG1655) (UniProt P00803); test: cell-based or functional assay
[36] = target: P. aeruginosa SPase (LepB) P84S, in strain PAS2006 (Pseudomonas aeruginosa PAO1) (UniProt Q9I5G7); test: cell-based or functional assay
[37] = target: E. coli MG1655 SPase (LepB) with Ile at residue 84, in the strain (Escherichia coli K-12 MG1655) (UniProt P00803); test: cell-based or functional assay
[38] = target: E. coli MG1655 SPase (LepB) with Asn at residue 84, in the strain (Escherichia coli K-12 MG1655) (UniProt P00803); test: cell-based or functional assay
[39] = target: S. aureus SPase (SpsB) P29S, in strain PAS8001 (Staphylococcus aureus NCTC 8325); test: cell-based or functional assay
[40] = target: E. coli MG1655 SPase (LepB) with Gln at residue 84, in the strain (Escherichia coli K-12 MG1655) (UniProt P00803); test: cell-based or functional assay
[41] = target: E. coli MG1655 SPase (LepB) with Leu at residue 84, in the strain (Escherichia coli K-12 MG1655) (UniProt P00803); test: cell-based or functional assay
[42] = target: E. coli MG1655 SPase (LepB) with Trp at residue 84, in the strain (Escherichia coli K-12 MG1655) (UniProt P00803); test: cell-based or functional assay

Q: Which results are given for arylomycin C16 (peptide)?
A: MIC of arylomycin C16 for the E. coli strain with this residue 84 [1]: 4 µg/mL; MIC of arylomycin C16 for the E. coli strain with this residue 84 [2]: 2 µg/mL; EC50 (read off the curve) [3]: 200 nM; EC50 (read off the curve) [4]: 2000 nM; Kd [5]: 130 nM; Kd [6]: 1280 nM; Kd [7]: 39 nM; Kd [8]: 979 nM; EC50 (read off the curve) [9]: 10 nM; Kd [9]: 5.73 nM; EC50 (read off the curve) [10]: 100 nM; Kd [11]: 5.7 nM; Kd [12]: 60 nM; EC50 (read off the curve) [13]: 100 nM; EC50 (read off the curve) [14]: 2000 nM; MIC of arylomycin C16 for the E. coli strain with this residue 84 [15]: < 16 µg/mL; MIC (µg/mL) of arylomycin C16 for the strain [16]: 0.25 µg/mL; MIC (µg/ml) of arylomycin C16 for the sensitive S. epidermidis strain [16]: 0.5 µg/mL; MIC of arylomycin C16 for the E. coli strain with this residue 84 [17]: < 16 µg/mL; MIC of arylomycin C16 for the E. coli strain with this residue 84 [18]: < 16 µg/mL; MIC (µg/mL) of arylomycin C16 for the strain [19]: > 128 µg/mL; MIC (µg/ml) of arylomycin C16 for the resistant S. aureus strain [19]: > 64 µg/mL; MIC of arylomycin C16 for the E. coli strain with this residue 84 [20]: < 16 µg/mL; MIC of arylomycin C16 for the E. coli strain with this residue 84 [21]: < 16 µg/mL; MIC of arylomycin C16 for the E. coli strain with this residue 84 [22]: < 16 µg/mL; MIC of arylomycin C16 for the E. coli strain with this residue 84 [23]: < 16 µg/mL; MIC (µg/mL) of arylomycin C16 for the strain [24]: 2 µg/mL; MIC of arylomycin C16 for the E. coli strain with this residue 84 [24]: < 16 µg/mL; MIC of arylomycin C16 for the E. coli strain with this residue 84 [25]: < 16 µg/mL; MIC (µg/mL) of arylomycin C16 for the strain [26]: > 128 µg/mL; MIC (µg/ml) of arylomycin C16 for the resistant P. aeruginosa strain [26]: > 64 µg/mL; MIC of arylomycin C16 for the E. coli strain with this residue 84 [27]: < 16 µg/mL; MIC (µg/ml) of arylomycin C16 for the sensitive P. aeruginosa strain [28]: 8 µg/mL; MIC (µg/mL) of arylomycin C16 for the strain [29]: 8 µg/mL; MIC (µg/ml) of arylomycin C16 for the resistant S. epidermidis strain [29]: 8 µg/mL; fold elevation of the MIC over the wild type strain [29]: 32 fold; MIC (µg/mL) of arylomycin C16 for the strain [30]: > 128 µg/mL; MIC (µg/ml) of arylomycin C16 for the resistant E. coli strain [30]: > 64 µg/mL; MIC of arylomycin C16 for the E. coli strain with this residue 84 [30]: > 256 µg/mL; MIC of arylomycin C16 for the E. coli strain with this residue 84 [31]: < 16 µg/mL; MIC of arylomycin C16 for the E. coli strain with this residue 84 [32]: < 16 µg/mL; MIC (µg/mL) of arylomycin C16 for the strain [33]: > 128 µg/mL; fold elevation of the MIC over the wild type strain [33]: > 256 fold; MIC of arylomycin C16 for the E. coli strain with this residue 84 [34]: < 16 µg/mL; MIC of arylomycin C16 for the E. coli strain with this residue 84 [35]: < 16 µg/mL; MIC (µg/mL) of arylomycin C16 for the strain [36]: 8 µg/mL; MIC of arylomycin C16 for the E. coli strain with this residue 84 [37]: < 16 µg/mL; MIC of arylomycin C16 for the E. coli strain with this residue 84 [38]: < 16 µg/mL; MIC (µg/mL) of arylomycin C16 for the strain [39]: 2 µg/mL; MIC (µg/ml) of arylomycin C16 for the sensitive S. aureus strain [39]: 2 µg/mL; MIC of arylomycin C16 for the E. coli strain with this residue 84 [40]: < 16 µg/mL; MIC (µg/ml) of arylomycin C16 for the sensitive E. coli strain [41]: 0.5 µg/mL; MIC of arylomycin C16 for the E. coli strain with this residue 84 [41]: < 16 µg/mL; MIC of arylomycin C16 for the E. coli strain with this residue 84 [42]: < 16 µg/mL
